Results: patent US20200048360A1 (TRACON PHARMACEUTICALS, published 2020)
Read-outs that look alike come from different tables or passages of the source.

T1: recombinant endoglin (UniProt P17813 26-586, limits assumed)
T1 sequence (looked up): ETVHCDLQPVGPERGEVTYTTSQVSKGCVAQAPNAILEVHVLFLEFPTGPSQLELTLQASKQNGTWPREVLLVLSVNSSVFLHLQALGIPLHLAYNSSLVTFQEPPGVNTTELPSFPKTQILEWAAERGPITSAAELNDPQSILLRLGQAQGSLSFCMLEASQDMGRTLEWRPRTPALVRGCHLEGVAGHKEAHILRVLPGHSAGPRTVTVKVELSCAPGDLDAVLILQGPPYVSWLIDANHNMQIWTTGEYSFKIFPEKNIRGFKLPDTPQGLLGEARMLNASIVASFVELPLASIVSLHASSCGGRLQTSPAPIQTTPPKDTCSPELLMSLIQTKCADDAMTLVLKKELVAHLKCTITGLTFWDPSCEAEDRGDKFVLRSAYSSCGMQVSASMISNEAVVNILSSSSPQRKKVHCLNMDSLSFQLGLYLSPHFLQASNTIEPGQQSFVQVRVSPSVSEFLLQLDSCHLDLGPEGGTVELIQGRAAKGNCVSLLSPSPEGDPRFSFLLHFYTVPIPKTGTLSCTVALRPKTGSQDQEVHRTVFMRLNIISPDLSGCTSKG

T2: human CD105 (R&D Systems, Catalog No. 1097-EN) (human, UniProt P17813 26-586)
T2 construct: Captured on the plate by mouse anti-human CD105 (Southern Biotechnologies 9811-01); also called endoglin
T2 sequence (looked up): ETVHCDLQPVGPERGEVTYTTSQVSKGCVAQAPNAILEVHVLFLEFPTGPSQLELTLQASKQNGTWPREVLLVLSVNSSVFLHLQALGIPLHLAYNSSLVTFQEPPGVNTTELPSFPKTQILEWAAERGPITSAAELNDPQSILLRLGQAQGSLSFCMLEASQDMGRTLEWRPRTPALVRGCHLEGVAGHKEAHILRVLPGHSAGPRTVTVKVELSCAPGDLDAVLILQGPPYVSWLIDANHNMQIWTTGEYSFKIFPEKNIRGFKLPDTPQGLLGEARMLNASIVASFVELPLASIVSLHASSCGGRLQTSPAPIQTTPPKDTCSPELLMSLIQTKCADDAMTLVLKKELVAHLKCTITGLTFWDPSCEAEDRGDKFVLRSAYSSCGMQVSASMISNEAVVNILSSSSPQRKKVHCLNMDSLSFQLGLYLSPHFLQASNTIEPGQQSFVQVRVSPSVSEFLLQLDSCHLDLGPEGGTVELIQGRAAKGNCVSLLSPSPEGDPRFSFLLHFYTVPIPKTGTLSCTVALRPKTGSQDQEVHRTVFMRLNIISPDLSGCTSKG


Key:
[1] = molecular target: T1, recombinant endoglin; assay: BIAcore SPR, antibody captured on protein A chip, recombinant endoglin as analyte, 25 C
Experimental: Affinity of antibodies can be assessed using, for example, BIAcore analysis using standard protocols. Briefly, protein A is chemically coupled to a BIAcore CM5 chip, with the amount of protein A immobilized corresponding to ˜2000 R U. Subsequent steps are performed in a running buffer of 10 mM HEPES, 150 mM NaCl, 3 mM EDTA, 0.05% TWEEN, pH=7.4, at 25 degrees Celsius using a 10 Hz data collection rate. Anti-endoglin antibody (10 nM) is captured at a 10 μL/min flow rate by the immobilized protein A on the BIAcore chip: typically, capture times of 20, 40 and 80 seconds allow the capture of antibody densities corresponding to 130 RU, 330 RU and 570 RU, respectively. Start-up cycles are performed using running buffer at a flow rate of 40 μl/min, a contact time of 90 seconds and a dissociation time of 90 seconds. Sample cycles are performed using recombinant endoglin at concentrations ranging from 0 to 40 nM. Endoglin is passed over the BIAcore chip containing captured antibody at a flow rate of 40 μl/min with a contact time of 525 seconds and dissociation time of 2500 seconds. Eight sample cycles are typically performed at each antibody capture density Regeneration of the chip is accomplished using 10 mM glycine pH=1.7. Data analysis is performed using BIAcore T100 Evaluation Software v1.1 Signals generated using BIAcore chips with different captured antibody densities are compared and data generated in the absence of recombinant endoglin are used to adjust for the intraassay blank signal. For fitting of the data, the Rₘₐₓ is allowed to float to account for variation in capture levels of each antibody in each cycle. Data from each capture density is fitted simultaneously during analysis of each antibody. BIAcore data are presented in Table 2 for chimeric, humanized and humanized/deimmunized anti-endoglin antibodies, including kₐ (1/Ms), kd (1/s), KD (M) and […] (RU²).

[2] = molecular target: T2, human CD105 (R&D Systems, Catalog No. …); assay: ELISA with OD450 falling against test antibody concentration (competition format of paragraph 712: biotinylated chimeric anti-CD105 on captured human CD105; the legend says only 'binding assay data')
[3] = molecular target: T2, human CD105 (R&D Systems, Catalog No. …); assay: as above; remark: listed apart in the source
[4] = molecular target: T2, human CD105 (R&D Systems, Catalog No. …); assay: as above; remark: listed apart in the source
[5] = molecular target: T2, human CD105 (R&D Systems, Catalog No. …); assay: as above; remark: listed apart in the source
[6] = molecular target: T2, human CD105 (R&D Systems, Catalog No. …); assay: as above; remark: listed apart in the source
[7] = molecular target: T2, human CD105 (R&D Systems, Catalog No. …); assay: as above; remark: listed apart in the source
[8] = molecular target: T2, human CD105 (R&D Systems, Catalog No. …); assay: as above; remark: listed apart in the source
[9] = molecular target: T2, human CD105 (R&D Systems, Catalog No. …); assay: as above; remark: listed apart in the source
[10] = molecular target: T2, human CD105 (R&D Systems, Catalog No. …); assay: competition ELISA on captured human CD105; competitor biotinylated chimeric anti-CD105
Experimental: Antibodies were tested in a competition ELISA for binding to CD105 against biotinylated chimeric anti-CD105. Briefly, chimeric anti-CD105 was biotinylated using a micro-biotinylation kit (Sigma, Catalog No. BTAG-1KT) following the manufacturer's instructions. […] Binding of the biotinylated chimeric antibody was detected via streptavidin-HRP (Sigma, Catalog No. 55512) and TMB substrate (Sigma, Catalog No. T0440). OD450 nm values were measured on a Dynex MRX TCII plate reader. The results of the competition analysis are illustrated in FIGS. 7 and 8. […] To allow for comparisons within and between experiments, IC50 values of humanized or humanized/deimmunized variants were normalized against the reference antibody that was included on each plate to give a value for the fold difference. IC50 values are relative to chimeric anti-CD105 and are representative of three experiments. Summary ELISA data are presented in Table 1 and include antibody expression levels […]) as assayed in saturated static cultures.

Kd [1]	koff [1]	kon [1]	IC50 (read off the curve) [2]	IC50 (read off the curve) [3]	IC50 (read off the curve) [4]	IC50 (read off the curve) [5]	IC50 (read off the curve) [6]	IC50 (read off the curve) [7]	IC50 (read off the curve) [8]	IC50 (read off the curve) [9]	Relative IC50 (fold of chimeric anti-endoglin antibody) [10]	Binder
0.6 nM	3.28e-05 s⁻¹	54700 M⁻¹ s⁻¹	~0.2 mg/L	~0.2 mg/L	~0.2 mg/L	~0.2 mg/L	~0.2 mg/L	~0.2 mg/L	~0.2 mg/L	~0.2 mg/L		chimeric anti-CD105 antibody TRC105 (antibody, V domains shown, Chimeric monoclonal antibody with the murine SN6j variable regions; also called chimeric anti-endoglin antibody; c-SN6j) VH: EVKLEESGGGLVQPGGSMKLSCAASGFTFSDAWMDWVRQSPEKGLEWVAEIRSKASNHATYYAESVKGRFTISRDDSKSSVYLQMNSLRAEDTGIYYCTRWRRFFDSWGQGTTLTVSS VL: QIVLSQSPAILSASPGEKVTMTCRASSSVSYMHWYQQKPGSSPKPWIYATSNLASGVPVRFSGSGSGTSYSLTISRVEAEDAATYYCQQWSSNPLTFGAGTKLELK
						~0.2 mg/L					0.99 fold relative to chimeric	VK2AAVH1A2 (antibody, V domains shown, IgG1 heavy chain, kappa light chain) VH: EVQLVESGGGLVKPGGSLRLSCAASGFTFSDAWMDWVRQAPGKGLEWVGEARSKASNHATYYAESVKGRFTISRDDSKNTLYLQMNSLKTEDTAVYYCTRWRRFFDSWGQGTLVTVSS VL: DIQLTQSPSSLSASVGDRATITCRASSSVSYMHWYQQKPGKAPKPWAYATSNLASGVPSRFSGSGSGTDYTLTISSLQPEDFATYYCQQWSSNPLTFGGGTKVEIK
0.533 nM	3.41e-05 s⁻¹	64000 M⁻¹ s⁻¹		~0.2 mg/L							1.05 fold relative to chimeric	VK1AAVH1R (antibody, V domains shown, IgG1 heavy chain, kappa light chain) VH: EVQLVESGGGLVKPGGSLRLSCAASGFTFSDAWMDWVRQAPGKGLEWVGEIRSRASNHATYYAESVKGRFTISRDDSKNTLYLQMNSLKTEDTAVYYCTRWRRFFDSWGQGTLVTVSS VL: DIQMTQSPSSLSASVGDRATITCRASSSVSYMHWYQQKPGKAPKPWAYATSNLASGVPSRFSGSGSGTDYTLTISSLQPEDFATYYCQQWSSNPLTFGGGTKVEIK
0.85 nM	3.03e-05 s⁻¹	35600 M⁻¹ s⁻¹			~0.2 mg/L						1.3 fold relative to chimeric	VK1AAVH1Q (antibody, V domains shown, IgG1 heavy chain, kappa light chain) VH: EVQLVESGGGLVKPGGSLRLSCAASGFTFSDAWMDWVRQAPGKGLEWVGEIRSQASNHATYYAESVKGRFTISRDDSKNTLYLQMNSLKTEDTAVYYCTRWRRFFDSWGQGTLVTVSS VL: DIQMTQSPSSLSASVGDRATITCRASSSVSYMHWYQQKPGKAPKPWAYATSNLASGVPSRFSGSGSGTDYTLTISSLQPEDFATYYCQQWSSNPLTFGGGTKVEIK
0.706 nM	3.25e-05 s⁻¹	46000 M⁻¹ s⁻¹								~0.2 mg/L	1.12 fold relative to chimeric	VK1AAVH1A2 (antibody, V domains shown, IgG1 heavy chain, kappa light chain; also called humanized/deimmunized anti-endoglin antibody VK1AAVH1A2) VH: EVQLVESGGGLVKPGGSLRLSCAASGFTFSDAWMDWVRQAPGKGLEWVGEARSKASNHATYYAESVKGRFTISRDDSKNTLYLQMNSLKTEDTAVYYCTRWRRFFDSWGQGTLVTVSS VL: DIQMTQSPSSLSASVGDRATITCRASSSVSYMHWYQQKPGKAPKPWAYATSNLASGVPSRFSGSGSGTDYTLTISSLQPEDFATYYCQQWSSNPLTFGGGTKVEIK
